According to patent publication US20260232759A1, “PEPTIDES THAT INHIBIT INFECTION BY SARS-COV-2, THE VIRUS THAT CAUSES COVID-19 DISEASE” (Wisconsin Alumni Research Foundation, priority 2021, published 2026):
Like-named read-outs stand apart in the source and are kept apart here. No end group written: not given here.

B1: α/β-SARS2 HRC QE-15 (peptide)
peptide: DISQINASVVNIEYEIXKLEEVAXKLEESLIDLQELGSGSGC
modifications: not fully specified (C-terminus); also: α/β-peptide, β-residue positions not given here
B2: α/β-SARS2 HRC QE-6 (peptide)
peptide: DISQINASVVNIEYEIKKLEEVAXKLEESLIDLQELGSGSGC
modifications: not fully specified (C-terminus); also: α/β-peptide, β-residue positions not given here, alias: peg4 chol conjugate
B3: α/β-SARS2 HRC QE-8 (peptide)
peptide: DISQINASVVNIEYEIXKLEEVAXKLEESLIDLQELGSGSGC
modifications: not fully specified (C-terminus); also: α/β-peptide, β-residue positions not given here, alias: peg4 chol conjugate
B4: α/β-SARS2 HRC QE-17 (peptide)
peptide: DISQINASVVNIEYEIXKLEEVAXKLEESLIDLQELGSGSGC
modifications: not fully specified (C-terminus); also: α/β-peptide, β-residue positions not given here
B5: α/β-SARS2 HRC QE-5 (peptide)
peptide: DISQINASVVNIEYEIXKLEEVAKKLEESLIDLQELGSGSGC
modifications: not fully specified (C-terminus); also: α/β-peptide, β-residue positions not given here, alias: peg4 chol conjugate
B6: α/β-SARS2 HRC QE-7 (peptide)
peptide: DISQINASVVNIEYEIXKLEEVAXKLEESLIDLQELGSGSGC
modifications: not fully specified (C-terminus); also: α/β-peptide, β-residue positions not given here, alias: peg4 chol conjugate

Columns and labels:
[1] = molecular target: SARS-CoV-2 Spike protein (SARS-CoV-2), P0DTC2; experiment: cell-based or functional assay
[2] = molecular target: SARS-CoV-2 Spike protein (SARS-CoV-2), P0DTC2; experiment: cell-based or functional assay; remark: listed apart in the source

| Binder | inhibition of S-mediated cell-cell fusion (β-Gal complementation), IC50 [1] | inhibition of S-mediated cell-cell fusion (β-Gal complementation), IC50 [2] | inhibition of S-mediated cell-cell fusion (β-Gal complementation), IC90 [2] |
| --- | --- | --- | --- |
| B1 | 50 nM | – | – |
| B2 | – | 20 nM | 100 nM |
| B3 | – | 100 nM | – |
| B4 | 10 nM | – | – |
| B5 | – | 1000 nM | – |
| B6 | 10 nM | 20 nM | 100 nM |
